# Source: paper PMC5746248, “Comparative analysis of the end-joining activity of several DNA ligases”
# T1: T4 DNA ligase (bacteriophage T4, UniProt P00970 1-487)
# T1 sequence: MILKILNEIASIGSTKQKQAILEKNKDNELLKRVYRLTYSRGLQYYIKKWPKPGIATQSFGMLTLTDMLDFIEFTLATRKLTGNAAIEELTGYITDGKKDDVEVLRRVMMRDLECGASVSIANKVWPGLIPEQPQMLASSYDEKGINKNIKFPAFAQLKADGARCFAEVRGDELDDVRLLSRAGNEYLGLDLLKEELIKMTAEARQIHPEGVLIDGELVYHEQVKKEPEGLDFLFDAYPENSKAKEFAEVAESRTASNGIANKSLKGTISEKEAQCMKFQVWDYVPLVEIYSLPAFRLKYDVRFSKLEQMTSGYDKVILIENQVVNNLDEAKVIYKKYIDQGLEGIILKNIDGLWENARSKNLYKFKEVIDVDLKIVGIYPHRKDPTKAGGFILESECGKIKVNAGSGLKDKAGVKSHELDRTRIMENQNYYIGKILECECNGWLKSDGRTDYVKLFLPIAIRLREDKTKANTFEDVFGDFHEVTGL
# T2: hLig3 (human DNA ligase III beta) (human, UniProt P49916-2 88-949)
# T2 sequence: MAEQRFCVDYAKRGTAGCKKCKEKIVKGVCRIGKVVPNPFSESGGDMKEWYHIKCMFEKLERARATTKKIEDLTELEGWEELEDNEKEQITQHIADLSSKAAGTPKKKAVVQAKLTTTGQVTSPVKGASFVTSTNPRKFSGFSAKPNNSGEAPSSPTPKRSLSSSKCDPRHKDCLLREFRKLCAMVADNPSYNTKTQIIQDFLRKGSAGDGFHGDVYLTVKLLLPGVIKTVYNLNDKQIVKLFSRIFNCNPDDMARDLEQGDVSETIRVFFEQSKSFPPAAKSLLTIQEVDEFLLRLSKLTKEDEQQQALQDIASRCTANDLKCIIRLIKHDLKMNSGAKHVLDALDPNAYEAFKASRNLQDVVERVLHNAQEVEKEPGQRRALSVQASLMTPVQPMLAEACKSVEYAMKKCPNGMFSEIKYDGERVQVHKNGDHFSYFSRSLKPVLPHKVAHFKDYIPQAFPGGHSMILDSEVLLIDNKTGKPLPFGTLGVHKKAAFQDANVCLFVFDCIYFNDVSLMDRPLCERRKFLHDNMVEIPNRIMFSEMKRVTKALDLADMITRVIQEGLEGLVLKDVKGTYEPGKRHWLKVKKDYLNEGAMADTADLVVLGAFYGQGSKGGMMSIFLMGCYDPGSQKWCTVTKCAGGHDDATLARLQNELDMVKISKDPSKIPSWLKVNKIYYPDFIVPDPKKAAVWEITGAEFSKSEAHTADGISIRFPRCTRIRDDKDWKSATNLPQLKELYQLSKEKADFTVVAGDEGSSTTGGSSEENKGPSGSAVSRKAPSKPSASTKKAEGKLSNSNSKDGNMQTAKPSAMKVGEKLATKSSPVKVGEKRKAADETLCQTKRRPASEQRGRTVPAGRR
# T3: PBCV1 DNA ligase (Paramecium bursaria chlorella virus 1, UniProt O41026 1-298)
# T3 sequence: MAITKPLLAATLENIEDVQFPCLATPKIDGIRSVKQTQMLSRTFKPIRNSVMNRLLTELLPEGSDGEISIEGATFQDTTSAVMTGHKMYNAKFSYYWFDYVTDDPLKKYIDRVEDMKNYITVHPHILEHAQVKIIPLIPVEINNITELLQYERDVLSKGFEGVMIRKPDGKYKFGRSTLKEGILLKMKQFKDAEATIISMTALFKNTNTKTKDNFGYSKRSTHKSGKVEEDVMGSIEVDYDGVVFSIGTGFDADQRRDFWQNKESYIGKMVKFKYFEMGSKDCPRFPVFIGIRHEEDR
# T4: hLig3 ZnF (human, UniProt P49916 88-206)
# T4 sequence: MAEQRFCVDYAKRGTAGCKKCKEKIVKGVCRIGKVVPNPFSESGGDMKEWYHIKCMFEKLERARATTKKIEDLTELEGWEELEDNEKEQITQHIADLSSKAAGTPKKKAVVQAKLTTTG
# T5: T3 DNA ligase (bacteriophage T3, UniProt P07717 1-346)
# T5 sequence: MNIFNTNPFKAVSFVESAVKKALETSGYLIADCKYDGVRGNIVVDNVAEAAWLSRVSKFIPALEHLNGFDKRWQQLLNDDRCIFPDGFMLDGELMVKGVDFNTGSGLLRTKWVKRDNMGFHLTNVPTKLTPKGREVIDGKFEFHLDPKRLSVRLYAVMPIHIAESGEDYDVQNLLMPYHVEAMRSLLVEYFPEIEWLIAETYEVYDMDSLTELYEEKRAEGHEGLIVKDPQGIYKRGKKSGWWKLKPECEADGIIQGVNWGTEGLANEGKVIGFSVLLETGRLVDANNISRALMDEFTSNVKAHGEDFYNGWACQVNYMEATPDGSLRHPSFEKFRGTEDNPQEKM
# T6: Sso7d (Sulfolobus solfataricus, UniProt P39476 2-64)
# T6 sequence: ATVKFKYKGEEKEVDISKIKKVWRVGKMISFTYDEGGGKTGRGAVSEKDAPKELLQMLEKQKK
# Tests used:
# Experiment in all cases: fluorescence anisotropy; 10 mM MgCl2, 1 mM ATP; T4 DNA ligase reaction buffer: 50 mM Tris-HCl pH 7.5 (25°C), 1 mM ATP, 10 mM MgCl2; 750 pM-4 nM DNA; anisotropy temperature not stated
# T4 DNA ligase = target: T1, T4 DNA ligase; conditions: label: 3'-FAM on one strand; blunt
# [1] = target: T2, hLig3 (human DNA ligase III beta); conditions: protein: recombinant; tags: N-terminal His6; label: 3'-FAM on one strand; blunt
# PBCV1 DNA ligase = target: T3, PBCV1 DNA ligase; conditions: protein: recombinant; label: 3'-FAM on one strand; blunt
# hLig3 ZnF = target: T4, hLig3 ZnF; conditions: protein: recombinant; tags: His10; label: 3'-FAM on one strand; blunt
# T3 DNA ligase = target: T5, T3 DNA ligase; conditions: label: 3'-FAM on one strand; blunt
# PBCV1-Nterm-T4NTD = PBCV1-Nterm-T4NTD (bacteriophage T4 (T4NTD) / Paramecium …, UniProt P00970 1-135+O41026:1-298, internal_change); conditions: protein: recombinant; tags: N-terminal His6; label: 3'-FAM on one strand; blunt
# Sso7d = target: T6, Sso7d; conditions: protein: recombinant; tags: N-terminal His6; label: 3'-FAM on one strand; blunt
binder,measurement,setting,value
Anisotropy 24mer dsDNA (dsDNA) DNA 1: GATCGTCCTTGGTGATCATGCATC DNA 2: GATGCATGATCACCAAGGACGATC,Kd,T4 DNA ligase,1900 ± 100 nM
same,Kd,[1],3.8 ± 0.2 nM
same,Kd,PBCV1 DNA ligase,990 ± 80 nM
same,Kd,hLig3 ZnF,21 ± 1 nM
same,Kd,T3 DNA ligase,6400 ± 400 nM
same,Kd,PBCV1-Nterm-T4NTD,243 ± 39 nM
same,Kd,Sso7d,430 ± 60 nM
